Key:
[1] = target: AnxA2–HA (His6–AnxA2 fused to an HA tag, residues 1–339) (human, UniProt P07355 1-339); experiment: […]
[2] = target: T1, NHERF2–VC (Na+/H+ exchanger regulatory factor 2, HA-tagged, fused to the C-terminal fragment of Venus), Q15599; experiment: split reporter; settings: remark: other sources report otherwise
T1 chain: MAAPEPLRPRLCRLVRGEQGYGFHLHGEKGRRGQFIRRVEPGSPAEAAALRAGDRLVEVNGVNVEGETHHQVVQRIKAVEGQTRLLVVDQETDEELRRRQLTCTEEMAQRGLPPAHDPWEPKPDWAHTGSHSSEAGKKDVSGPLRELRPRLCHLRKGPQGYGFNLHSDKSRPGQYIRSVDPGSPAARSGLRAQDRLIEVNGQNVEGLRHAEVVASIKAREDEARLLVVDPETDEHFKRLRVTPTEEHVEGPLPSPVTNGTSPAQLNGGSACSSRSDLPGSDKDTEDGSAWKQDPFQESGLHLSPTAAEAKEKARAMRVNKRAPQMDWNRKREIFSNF

[3] = target: T2, His6–Tir-EHEC (residues 1–558) (enterohaemorrhagic Escherichia coli …, UniProt Q7DB77 1-558); experiment: […]
T2 sequence: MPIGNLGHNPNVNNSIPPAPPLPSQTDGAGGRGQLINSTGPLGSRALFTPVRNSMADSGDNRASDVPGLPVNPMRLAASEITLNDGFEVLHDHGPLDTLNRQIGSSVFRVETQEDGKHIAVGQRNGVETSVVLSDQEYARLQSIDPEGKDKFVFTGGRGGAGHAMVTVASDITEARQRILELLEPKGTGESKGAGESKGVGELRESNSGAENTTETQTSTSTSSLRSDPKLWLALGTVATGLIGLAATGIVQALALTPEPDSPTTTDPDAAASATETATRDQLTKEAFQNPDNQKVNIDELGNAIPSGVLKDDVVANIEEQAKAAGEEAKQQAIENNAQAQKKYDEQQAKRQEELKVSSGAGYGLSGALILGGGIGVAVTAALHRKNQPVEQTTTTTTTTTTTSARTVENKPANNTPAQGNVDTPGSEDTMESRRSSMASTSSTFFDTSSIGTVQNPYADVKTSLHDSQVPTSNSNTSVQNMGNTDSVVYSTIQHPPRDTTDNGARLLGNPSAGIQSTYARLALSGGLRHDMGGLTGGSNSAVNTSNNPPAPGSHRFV

[4] = target: T3, Tir-EPEC (residues 1–550), His6-tagged (enteropathogenic Escherichia coli (EPEC), UniProt B7UM99 1-550); experiment: […]
T3 sequence: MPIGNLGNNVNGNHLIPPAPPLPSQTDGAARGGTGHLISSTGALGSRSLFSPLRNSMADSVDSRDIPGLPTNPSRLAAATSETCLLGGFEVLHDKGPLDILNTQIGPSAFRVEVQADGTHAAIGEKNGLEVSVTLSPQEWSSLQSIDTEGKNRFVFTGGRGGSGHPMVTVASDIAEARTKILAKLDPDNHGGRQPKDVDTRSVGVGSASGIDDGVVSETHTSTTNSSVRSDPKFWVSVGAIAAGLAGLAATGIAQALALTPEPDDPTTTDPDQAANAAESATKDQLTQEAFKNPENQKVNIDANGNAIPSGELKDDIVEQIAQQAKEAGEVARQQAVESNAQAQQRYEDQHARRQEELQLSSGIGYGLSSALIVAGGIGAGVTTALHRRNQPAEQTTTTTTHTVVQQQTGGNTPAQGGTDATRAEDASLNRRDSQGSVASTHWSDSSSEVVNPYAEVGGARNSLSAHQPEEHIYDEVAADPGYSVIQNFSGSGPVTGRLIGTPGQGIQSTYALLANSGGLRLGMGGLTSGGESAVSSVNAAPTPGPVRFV

Sequence of AnxA2–HA (His6–AnxA2 fused to an HA tag, residues 1–339) (P07355 whole entry, the tested form may be a part): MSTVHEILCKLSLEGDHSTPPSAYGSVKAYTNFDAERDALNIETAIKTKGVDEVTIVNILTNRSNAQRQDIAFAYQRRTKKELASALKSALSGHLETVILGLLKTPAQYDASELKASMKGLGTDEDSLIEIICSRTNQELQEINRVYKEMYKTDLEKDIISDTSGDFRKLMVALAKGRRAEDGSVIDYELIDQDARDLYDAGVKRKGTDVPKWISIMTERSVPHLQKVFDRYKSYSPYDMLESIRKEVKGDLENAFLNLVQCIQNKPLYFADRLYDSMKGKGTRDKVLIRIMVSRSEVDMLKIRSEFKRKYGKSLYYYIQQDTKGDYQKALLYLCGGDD

B1: TirC-EHEC (residues 366–558), His6-tagged (domain or fragment)
chain: SGALILGGGIGVAVTAALHRKNQPVEQTTTTTTTTTTTSARTVENKPANNTPAQGNVDTPGSEDTMESRRSSMASTSSTFFDTSSIGTVQNPYADVKTSLHDSQVPTSNSNTSVQNMGNTDSVVYSTIQHPPRDTTDNGARLLGNPSAGIQSTYARLALSGGLRHDMGGLTGGSNSAVNTSNNPPAPGSHRFV
- binding result [1]: binds

B2: NHERF2–VC (Na+/H+ exchanger regulatory factor 2, HA-tagged, fused to the C-terminal fragment of Venus), Q15599 1-337 (natural protein)
chain: MAAPEPLRPRLCRLVRGEQGYGFHLHGEKGRRGQFIRRVEPGSPAEAAALRAGDRLVEVNGVNVEGETHHQVVQRIKAVEGQTRLLVVDQETDEELRRRQLTCTEEMAQRGLPPAHDPWEPKPDWAHTGSHSSEAGKKDVSGPLRELRPRLCHLRKGPQGYGFNLHSDKSRPGQYIRSVDPGSPAARSGLRAQDRLIEVNGQNVEGLRHAEVVASIKAREDEARLLVVDPETDEHFKRLRVTPTEEHVEGPLPSPVTNGTSPAQLNGGSACSSRSDLPGSDKDTEDGSAWKQDPFQESGLHLSPTAAEAKEKARAMRVNKRAPQMDWNRKREIFSNF
- BiFC signal, percent of Venus fluorescence (% of Venus fluorescence) [2]: 75

B3: TirN-EPEC (residues 1–240), His6-tagged (domain or fragment)
chain: MPIGNLGNNVNGNHLIPPAPPLPSQTDGAARGGTGHLISSTGALGSRSLFSPLRNSMADSVDSRDIPGLPTNPSRLAAATSETCLLGGFEVLHDKGPLDILNTQIGPSAFRVEVQADGTHAAIGEKNGLEVSVTLSPQEWSSLQSIDTEGKNRFVFTGGRGGSGHPMVTVASDIAEARTKILAKLDPDNHGGRQPKDVDTRSVGVGSASGIDDGVVSETHTSTTNSSVRSDPKFWVSVGA
- binding result [1]: binds

B4: AnxA2-C (C-terminal region of AnxA2, amino acids 191–339), His6-tagged (domain or fragment)
chain: IDQDARDLYDAGVKRKGTDVPKWISIMTERSVPHLQKVFDRYKSYSPYDMLESIRKEVKGDLENAFLNLVQCIQNKPLYFADRLYDSMKGKGTRDKVLIRIMVSRSEVDMLKIRSEFKRKYGKSLYYYIQQDTKGDYQKALLYLCGGDD
- binding result [3]: binds
- binding result [4]: binds

B5: TirC-EPEC (residues 369–550), His6-tagged (domain or fragment)
chain: SSALIVAGGIGAGVTTALHRRNQPAEQTTTTTTHTVVQQQTGGNTPAQGGTDATRAEDASLNRRDSQGSVASTHWSDSSSEVVNPYAEVGGARNSLSAHQPEEHIYDEVAADPGYSVIQNFSGSGPVTGRLIGTPGQGIQSTYALLANSGGLRLGMGGLTSGGESAVSSVNAAPTPGPVRFV
- binding result [1]: binds

B6: TirN-EHEC (residues 1–237), His6-tagged (domain or fragment)
chain: MPIGNLGHNPNVNNSIPPAPPLPSQTDGAGGRGQLINSTGPLGSRALFTPVRNSMADSGDNRASDVPGLPVNPMRLAASEITLNDGFEVLHDHGPLDTLNRQIGSSVFRVETQEDGKHIAVGQRNGVETSVVLSDQEYARLQSIDPEGKDKFVFTGGRGGAGHAMVTVASDITEARQRILELLEPKGTGESKGAGESKGVGELRESNSGAENTTETQTSTSTSSLRSDPKLWLALGT
- binding result [1]: binds
